Assay results reported in the supplement of paper PMC10724198.
± gives the standard deviation of the averaged measurements.

Tested on: Saccharomyces cerevisiae
Assay: protein stability index of tFT-peptide fusion (C-terminal peptide) (PSI (0-1 scale)); higher = more stable (slower turnover)
Details: genetic background: wild type; temperature: 30 C
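Note: PSI is a weighted mean of sequencing reads over stability bins, variants kept only with over 10 reads, mCherry proximal and sfGFP distal, peptide attached via GGGS linker.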

PPPRSPPAPPPP
protein stability index: 0.774 ± 0.052

PPPRSSLRLPSA
protein stability index: 0.652 ± 0.063

PPPRTPPDNHPN
protein stability index: 0.7256 ± 0.0047

PPPSAPLPPSPP
protein stability index: 0.6424 ± 0.0043

PPPSPNPRENPK
protein stability index: 0.671 ± 0.0071

PPPSPPCTPSLI
protein stability index: 0.696 ± 0.036

PPPSPPPSLSLP
protein stability index: 0.702 ± 0.025

PPPSPSPPPAPG
protein stability index: 0.6941 ± 0.006

PPPSPSSPPLSL
protein stability index: 0.717 ± 0.099

PPPSSAPPPTPP
protein stability index: 0.607 ± 0.15

PPPSSPSPPRCR
protein stability index: 0.733 ± 0.1

PPPTSSPSPSIL
protein stability index: 0.741 ± 0.07

PPPVLPSPRSDP
protein stability index: 0.667 ± 0.17

PPPVPPPAPLLS
protein stability index: 0.642 ± 0.074

PPPVPPSPSPPP
protein stability index: 0.684 ± 0.013

PPPWPLPPGRLP
protein stability index: 0.703 ± 0.059

PPPYHPDATFTT
protein stability index: 0.7063 ± 0.0025

PPQPRLTPSPPL
protein stability index: 0.697 ± 0.028

PPRASQSLLAVP
protein stability index: 0.6555 ± 0.0035

PPRATPPFPLPP
protein stability index: 0.648 ± 0.031

PPRLPPLPSSLL
protein stability index: 0.721 ± 0.033

PPRPAPPPPPAL
protein stability index: 0.723 ± 0.11

PPRPHPPPRPSS
protein stability index: 0.74 ± 0.048

PPRPLRAEGLES
protein stability index: 0.727 ± 0.028

PPRPPPLPPSPP
protein stability index: 0.685 ± 0.094

PPRPPPLSPAPP
protein stability index: 0.7 ± 0.069

PPRPPPPPRSTS
protein stability index: 0.672 ± 0.024

PPRPPSPPPPPS
protein stability index: 0.779 ± 0.16

PPRPSPPPPPRS
protein stability index: 0.735 ± 0.09

PPRRLPALPSPL
protein stability index: 0.774 ± 0.014

PPRRSDSQQFSA
protein stability index: 0.676 ± 0.029

PPRSLPPPPFPF
protein stability index: 0.749 ± 0.01

PPRSLPPSPPSP
protein stability index: 0.7384 ± 0.0047

PPRSPPLPPAPT
protein stability index: 0.762 ± 0.013

PPRSPPLPPGLP
protein stability index: 0.558 ± 0.039

PPRSPPPPRLLL
protein stability index: 0.724 ± 0.048

PPRSRPLPALPS
protein stability index: 0.647 ± 0.044

PPRYLCLGPGPC
protein stability index: 0.691 ± 0.03

PPSGGYFSTCPP
protein stability index: 0.731 ± 0.03

PPSKRSKKPFRI
protein stability index: 0.698 ± 0.022

PPSLLFPLPLAS
protein stability index: 0.649 ± 0.11

PPSLPPPPPVHP
protein stability index: 0.648 ± 0.034

PPSLPRFTPRPA
protein stability index: 0.718 ± 0.036

PPSLPSVRLSLS
protein stability index: 0.685 ± 0.027

PPSLRPSSSPPI
protein stability index: 0.724 ± 0.022

PPSLSPFSACLS
protein stability index: 0.669 ± 0.064

PPSNPLTRAQCL
protein stability index: 0.737 ± 0.14

PPSPDPPPPDLS
protein stability index: 0.649 ± 0.017

PPSPEPGSPHRF
protein stability index: 0.734 ± 0.018

PPSPHLVPYYLP
protein stability index: 0.677 ± 0.014

PPSPLLVTLPPA
protein stability index: 0.704 ± 0.022

PPSPPFDFSPQN
protein stability index: 0.716 ± 0.014

PPSPPHPIRPPA
protein stability index: 0.713 ± 0.025

PPSPPIPPPPAP
protein stability index: 0.732 ± 0.053

PPSPPPGTCPPD
protein stability index: 0.617 ± 0.064

PPSPPPPAPPRA
protein stability index: 0.713 ± 0.023

PPSPPPPLSLSP
protein stability index: 0.6853 ± 0.0033

PPSPPPPPPPPL
protein stability index: 0.7 ± 0.032

PPSPSNPNPLRP
protein stability index: 0.726 ± 0.019

PPSPSSLLFLLS
protein stability index: 0.7043 ± 0.0028

PPSPTPPALPAP
protein stability index: 0.688 ± 0.018

PPSRPLPFLLPH
protein stability index: 0.696 ± 0.0091

PPSSDRPSIILP
protein stability index: 0.691 ± 0.081

PPSSPPSVLPPV
protein stability index: 0.666 ± 0.021

PPSSTAALPPLP
protein stability index: 0.609 ± 0.066

PPSVTLSEMTTG
protein stability index: 0.642 ± 0.025

PPSWASLRLPPT
protein stability index: 0.708 ± 0.072

PPTFPPLLSPPP
protein stability index: 0.661 ± 0.025

PPTIPLRTLPTS
protein stability index: 0.703 ± 0.018

PPTPKHTPHDTT
protein stability index: 0.694 ± 0.031

PPTPLAASPRPS
protein stability index: 0.722 ± 0.12

PPTPPSLPPLSP
protein stability index: 0.665 ± 0.086

PPTPPTSHPSPR
protein stability index: 0.696 ± 0.027

PPTPTPPHPPPP
protein stability index: 0.611 ± 0.015

PPVKQKEKGTAT
protein stability index: 0.701 ± 0.021

PPVPPPPRLPRP
protein stability index: 0.727 ± 0.019

PPWPPLVQPVSL
protein stability index: 0.708 ± 0.066

PPYRVVLPLFVP
protein stability index: 0.508 ± 0.033

PPYSQPSSTPPH
protein stability index: 0.706 ± 0.092

PQDRGICQIIES
protein stability index: 0.632 ± 0.017

PQDYITTCQHPT
protein stability index: 0.651 ± 0.079
